# In patent US20250339531A1, “DUX4 POLYPEPTIDES AND NUCLEIC ACIDS FOR TREATING INFLAMMATORY AND AUTOIMMUNE CONDITIONS” (Fred Hutchinson Cancer Center, priority 2021, published 2025):
# What was measured:
# Experiment in all cases: anti-FLAG co-IP LC-MS, exp 3, +IFNg +Dox
# [1] = molecular target: 40S ribosomal protein S14 (Homo sapiens) (UniProt P62263)
# [2] = molecular target: 40S ribosomal protein S8 (Homo sapiens) (UniProt P62241)
# [3] = molecular target: 4F2 cell-surface antigen heavy chain (Homo sapiens) (UniProt P08195)
# 4F2 cell-surface antigen heavy chain (Homo sapiens), sequence (P08195 103-630 limits assumed): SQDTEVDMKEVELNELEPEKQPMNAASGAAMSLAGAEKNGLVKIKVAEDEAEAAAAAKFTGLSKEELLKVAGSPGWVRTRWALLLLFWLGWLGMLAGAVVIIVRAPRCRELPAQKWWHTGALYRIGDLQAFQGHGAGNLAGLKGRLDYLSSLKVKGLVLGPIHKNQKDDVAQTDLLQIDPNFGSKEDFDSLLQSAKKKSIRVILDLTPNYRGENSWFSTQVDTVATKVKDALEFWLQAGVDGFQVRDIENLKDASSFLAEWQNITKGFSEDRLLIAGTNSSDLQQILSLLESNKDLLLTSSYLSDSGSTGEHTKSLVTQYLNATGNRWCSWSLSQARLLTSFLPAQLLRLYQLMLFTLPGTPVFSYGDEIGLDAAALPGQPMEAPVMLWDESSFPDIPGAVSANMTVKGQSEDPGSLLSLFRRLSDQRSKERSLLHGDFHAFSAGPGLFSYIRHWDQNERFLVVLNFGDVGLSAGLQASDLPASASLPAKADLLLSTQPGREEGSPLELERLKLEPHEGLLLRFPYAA
# [4] = molecular target: 60S acidic ribosomal protein P0 (Homo sapiens) (UniProt P05388)
# [5] = molecular target: 60S ribosomal protein L11 (Homo sapiens) (UniProt P62913)
# [6] = molecular target: 60S ribosomal protein L18 (Fragment) (Homo sapiens) (UniProt Q07020)
# [7] = molecular target: 60S ribosomal protein L18a (Homo sapiens) (UniProt Q02543)
# [8] = molecular target: 60S ribosomal protein L19 (Homo sapiens) (UniProt P84098)
# [9] = molecular target: 60S ribosomal protein L29 (Homo sapiens) (UniProt P47914)
# [10] = molecular target: 60S ribosomal protein L4 (Homo sapiens) (UniProt P36578)
# [11] = molecular target: ATP synthase subunit alpha, mitochondrial (Homo sapiens) (UniProt P25705)
# ATP synthase subunit alpha, mitochondrial (Homo sapiens), sequence (P25705 44-553 limits assumed): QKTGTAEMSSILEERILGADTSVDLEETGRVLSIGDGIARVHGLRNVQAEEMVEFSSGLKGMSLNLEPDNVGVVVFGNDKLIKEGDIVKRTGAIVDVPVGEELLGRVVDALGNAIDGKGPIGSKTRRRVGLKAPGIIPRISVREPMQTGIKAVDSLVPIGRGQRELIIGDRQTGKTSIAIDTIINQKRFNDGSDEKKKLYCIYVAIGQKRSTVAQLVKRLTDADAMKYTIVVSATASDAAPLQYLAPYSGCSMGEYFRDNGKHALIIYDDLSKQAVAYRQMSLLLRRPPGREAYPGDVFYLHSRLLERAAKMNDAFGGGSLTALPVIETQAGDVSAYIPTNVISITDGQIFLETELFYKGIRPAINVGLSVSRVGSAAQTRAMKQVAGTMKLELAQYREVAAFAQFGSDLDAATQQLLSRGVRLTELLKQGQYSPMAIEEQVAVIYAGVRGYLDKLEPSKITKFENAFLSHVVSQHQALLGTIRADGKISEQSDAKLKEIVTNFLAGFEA
# [12] = molecular target: Aspartyl/asparaginyl beta-hydroxylase (Homo sapiens) (UniProt Q12797)
# Aspartyl/asparaginyl beta-hydroxylase (Homo sapiens), sequence (Q12797 whole entry): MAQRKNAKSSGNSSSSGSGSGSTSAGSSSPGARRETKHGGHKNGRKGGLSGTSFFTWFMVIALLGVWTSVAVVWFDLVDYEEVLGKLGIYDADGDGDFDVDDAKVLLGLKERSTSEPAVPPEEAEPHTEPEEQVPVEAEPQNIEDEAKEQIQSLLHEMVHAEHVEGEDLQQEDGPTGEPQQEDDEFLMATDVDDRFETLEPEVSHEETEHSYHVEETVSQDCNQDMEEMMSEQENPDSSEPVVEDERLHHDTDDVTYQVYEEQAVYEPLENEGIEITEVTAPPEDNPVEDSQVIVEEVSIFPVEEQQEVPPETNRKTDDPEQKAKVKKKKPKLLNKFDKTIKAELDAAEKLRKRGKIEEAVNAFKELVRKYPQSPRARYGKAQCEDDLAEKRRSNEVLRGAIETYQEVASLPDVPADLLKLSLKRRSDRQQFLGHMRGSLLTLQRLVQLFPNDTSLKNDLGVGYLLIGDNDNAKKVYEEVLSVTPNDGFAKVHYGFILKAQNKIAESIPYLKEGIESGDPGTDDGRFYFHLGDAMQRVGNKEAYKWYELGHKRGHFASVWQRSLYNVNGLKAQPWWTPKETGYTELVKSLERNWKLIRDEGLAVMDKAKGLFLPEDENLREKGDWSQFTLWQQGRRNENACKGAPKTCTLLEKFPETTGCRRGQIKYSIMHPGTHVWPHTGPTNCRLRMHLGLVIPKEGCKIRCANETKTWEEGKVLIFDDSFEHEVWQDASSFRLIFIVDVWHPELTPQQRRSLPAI
# Caprin-1 (Homo sapiens) = Caprin-1 (Homo sapiens) (UniProt Q14444)
# Caprin-1 (Homo sapiens), sequence (Q14444 2-709 limits assumed): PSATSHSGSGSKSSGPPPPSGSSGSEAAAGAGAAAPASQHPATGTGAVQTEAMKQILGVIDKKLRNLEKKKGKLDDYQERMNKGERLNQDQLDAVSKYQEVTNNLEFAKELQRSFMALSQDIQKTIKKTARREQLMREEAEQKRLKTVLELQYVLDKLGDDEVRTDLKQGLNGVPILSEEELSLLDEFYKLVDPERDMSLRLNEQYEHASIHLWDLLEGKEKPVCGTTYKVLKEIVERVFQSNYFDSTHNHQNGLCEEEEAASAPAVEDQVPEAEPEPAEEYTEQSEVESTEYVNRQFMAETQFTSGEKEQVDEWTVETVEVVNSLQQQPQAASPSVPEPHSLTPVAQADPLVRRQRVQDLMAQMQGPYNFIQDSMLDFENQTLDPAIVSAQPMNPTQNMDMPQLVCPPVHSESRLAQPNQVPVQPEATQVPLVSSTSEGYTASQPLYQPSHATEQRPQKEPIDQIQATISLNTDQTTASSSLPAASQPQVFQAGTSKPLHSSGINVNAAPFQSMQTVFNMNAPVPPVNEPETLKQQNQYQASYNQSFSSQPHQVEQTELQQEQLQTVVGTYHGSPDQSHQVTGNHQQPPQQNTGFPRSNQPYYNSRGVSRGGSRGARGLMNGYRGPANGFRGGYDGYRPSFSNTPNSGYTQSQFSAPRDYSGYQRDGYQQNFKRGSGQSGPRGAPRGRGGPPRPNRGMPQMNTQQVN
# [13] = molecular target: Cytoskeleton-associated protein 4 (Homo sapiens) (UniProt Q07065)
# [14] = molecular target: D-3-phosphoglycerate dehydrogenase (Homo sapiens) (UniProt O43175)
# D-3-phosphoglycerate dehydrogenase (Homo sapiens), sequence (O43175 2-533 limits assumed): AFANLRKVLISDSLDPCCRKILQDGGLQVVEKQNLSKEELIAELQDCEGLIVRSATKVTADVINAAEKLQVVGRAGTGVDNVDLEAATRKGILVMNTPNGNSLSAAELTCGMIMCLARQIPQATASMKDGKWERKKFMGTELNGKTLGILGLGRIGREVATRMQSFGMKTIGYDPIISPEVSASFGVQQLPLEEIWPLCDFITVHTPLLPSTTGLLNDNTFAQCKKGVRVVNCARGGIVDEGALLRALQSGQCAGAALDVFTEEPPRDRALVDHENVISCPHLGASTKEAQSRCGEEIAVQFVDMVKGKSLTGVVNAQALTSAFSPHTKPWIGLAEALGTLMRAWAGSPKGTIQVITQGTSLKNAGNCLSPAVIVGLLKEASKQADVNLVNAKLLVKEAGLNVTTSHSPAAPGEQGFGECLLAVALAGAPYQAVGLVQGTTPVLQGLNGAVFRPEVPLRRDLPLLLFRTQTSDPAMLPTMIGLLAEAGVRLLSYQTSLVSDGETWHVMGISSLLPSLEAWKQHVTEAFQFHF
# [15] = molecular target: Dolichyl-diphosphooligosaccharide--protein glycosyltransferase subunit 1 (Homo sapiens) (UniProt P04843)
# Dolichyl-diphosphooligosaccharide--protein glycosyltransferase subunit 1 (Homo sapiens), sequence (P04843 24-607 limits assumed): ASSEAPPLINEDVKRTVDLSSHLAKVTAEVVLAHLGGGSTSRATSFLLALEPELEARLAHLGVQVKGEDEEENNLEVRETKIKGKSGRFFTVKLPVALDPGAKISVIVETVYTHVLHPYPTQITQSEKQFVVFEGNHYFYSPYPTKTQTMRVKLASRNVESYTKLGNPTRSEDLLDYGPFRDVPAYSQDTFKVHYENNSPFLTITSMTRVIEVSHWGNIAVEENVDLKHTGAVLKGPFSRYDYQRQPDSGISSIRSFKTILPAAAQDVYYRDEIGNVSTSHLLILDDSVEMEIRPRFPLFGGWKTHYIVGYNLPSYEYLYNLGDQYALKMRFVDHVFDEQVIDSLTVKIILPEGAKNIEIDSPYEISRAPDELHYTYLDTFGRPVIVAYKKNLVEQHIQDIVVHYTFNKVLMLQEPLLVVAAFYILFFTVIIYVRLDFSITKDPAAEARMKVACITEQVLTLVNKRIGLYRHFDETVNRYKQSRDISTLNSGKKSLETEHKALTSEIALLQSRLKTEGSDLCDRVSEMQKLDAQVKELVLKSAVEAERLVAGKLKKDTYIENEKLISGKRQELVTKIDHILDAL
# [16] = molecular target: Elongation factor 1-alpha 1 (Homo sapiens) (UniProt P68104)
# Filamin-A (Homo sapiens) = Filamin-A (Homo sapiens) (UniProt P21333)
# [17] = molecular target: Heat shock 70 kDa protein 1B (Homo sapiens) (UniProt P0DMV9)
# [18] = molecular target: Heat shock protein HSP 90-alpha (Homo sapiens) (UniProt P07900)
# [19] = molecular target: KN motif and ankyrin repeat domain-containing protein 2 (Homo sapiens) (UniProt Q63ZY3)
# [20] = molecular target: Keratin, type II cytoskeletal 71 (Homo sapiens) (UniProt Q3SY84)
# [21] = molecular target: Myosin regulatory light chain 12A (Homo sapiens) (UniProt J3QRS3)
# Myosin regulatory light chain 12A (Homo sapiens), sequence (J3QRS3 entry or part of it limits assumed, form in doubt): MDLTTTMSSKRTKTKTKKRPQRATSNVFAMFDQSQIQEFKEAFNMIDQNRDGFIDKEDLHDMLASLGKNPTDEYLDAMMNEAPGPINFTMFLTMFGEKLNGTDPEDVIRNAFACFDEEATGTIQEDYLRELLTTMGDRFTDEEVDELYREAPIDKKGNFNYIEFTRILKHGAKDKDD
# Myosin-9 (Homo sapiens) = Myosin-9 (Homo sapiens) (UniProt P35579)
# [22] = molecular target: Neuroblast differentiation-associated protein AHNAK (Homo sapiens) (UniProt Q09666)
# [23] = molecular target: Probable ubiquitin carboxyl-terminal hydrolase FAF-X (Homo sapiens) (UniProt Q93008)
# [24] = molecular target: Procollagen-lysine,2-oxoglutarate 5-dioxygenase 2 (Homo sapiens) (UniProt O00469)
# [25] = molecular target: Prolyl 4-hydroxylase subunit alpha-1 (Homo sapiens) (UniProt P13674)
# [26] = molecular target: Ribonuclease inhibitor (Homo sapiens) (UniProt P13489)
# [27] = molecular target: Serine/threonine-protein phosphatase 2A 65 kDa regulatory subunit A alpha isoform (Homo sapiens) (UniProt P30153)
# Serine/threonine-protein phosphatase 2A 65 kDa regulatory subunit A alpha isoform (Homo sapiens), sequence (P30153 2-589 limits assumed): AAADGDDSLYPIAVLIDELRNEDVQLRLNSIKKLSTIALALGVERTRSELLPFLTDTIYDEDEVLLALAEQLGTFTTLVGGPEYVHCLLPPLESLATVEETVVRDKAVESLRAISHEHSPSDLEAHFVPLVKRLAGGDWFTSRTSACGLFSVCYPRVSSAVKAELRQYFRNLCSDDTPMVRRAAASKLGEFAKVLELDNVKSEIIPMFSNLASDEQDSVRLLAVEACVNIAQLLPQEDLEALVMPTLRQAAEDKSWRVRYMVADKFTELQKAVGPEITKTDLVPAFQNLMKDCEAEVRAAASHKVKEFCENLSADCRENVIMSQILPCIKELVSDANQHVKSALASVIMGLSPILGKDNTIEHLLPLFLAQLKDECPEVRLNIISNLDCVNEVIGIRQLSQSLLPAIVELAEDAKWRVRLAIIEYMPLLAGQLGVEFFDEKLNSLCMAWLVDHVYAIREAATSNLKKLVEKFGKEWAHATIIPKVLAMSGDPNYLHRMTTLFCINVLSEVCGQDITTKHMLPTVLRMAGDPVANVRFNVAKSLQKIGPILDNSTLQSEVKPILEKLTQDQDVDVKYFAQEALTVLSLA
# Serpin B3 (Homo sapiens) = Serpin B3 (Homo sapiens) (UniProt P29508)
# [28] = molecular target: Tubulin beta-6 chain (Homo sapiens) (UniProt Q9BUF5)
# [29] = molecular target: Ubiquitin carboxyl-terminal hydrolase 7 (Homo sapiens) (UniProt Q93009)
# Vimentin (Homo sapiens) = Vimentin (Homo sapiens) (UniProt P08670)
# [30] = molecular target: WD repeat-containing protein 1 (Homo sapiens) (UniProt O75083)
# WD repeat-containing protein 1 (Homo sapiens), sequence (O75083 whole entry): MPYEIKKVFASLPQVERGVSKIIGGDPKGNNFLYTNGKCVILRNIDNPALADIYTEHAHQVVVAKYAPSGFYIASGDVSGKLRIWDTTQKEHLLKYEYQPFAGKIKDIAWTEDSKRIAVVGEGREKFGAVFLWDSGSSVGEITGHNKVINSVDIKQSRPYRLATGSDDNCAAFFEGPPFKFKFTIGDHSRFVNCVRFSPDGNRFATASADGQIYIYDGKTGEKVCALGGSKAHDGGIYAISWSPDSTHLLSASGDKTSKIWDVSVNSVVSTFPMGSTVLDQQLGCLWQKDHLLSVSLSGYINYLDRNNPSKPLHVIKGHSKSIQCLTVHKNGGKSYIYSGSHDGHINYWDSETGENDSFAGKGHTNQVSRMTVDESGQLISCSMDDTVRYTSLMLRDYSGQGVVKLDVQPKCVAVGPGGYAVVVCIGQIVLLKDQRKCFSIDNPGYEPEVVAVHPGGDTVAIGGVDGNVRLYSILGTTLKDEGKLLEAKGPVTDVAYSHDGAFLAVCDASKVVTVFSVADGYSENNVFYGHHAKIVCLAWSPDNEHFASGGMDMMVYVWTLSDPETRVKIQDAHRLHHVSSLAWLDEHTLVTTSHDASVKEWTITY
# [31] = molecular target: X-ray repair cross-complementing protein 5 (Homo sapiens) (UniProt P13010)
substance,measurement,setting,value
i3XFLAG-NLS-CTDaa154-424,PSMs,[1],3 PSMs
same,PSMs,[2],6 PSMs
same,PSMs,[3],2 PSMs
same,PSMs,[4],5 PSMs
same,PSMs,[5],2 PSMs
same,PSMs,[6],5 PSMs
same,PSMs,[7],2 PSMs
same,PSMs,[8],2 PSMs
same,PSMs,[9],2 PSMs
same,PSMs,[10],34 PSMs
same,PSMs,[11],2 PSMs
same,PSMs,[12],9 PSMs
same,PSMs,Caprin-1 (Homo sapiens),5 PSMs
same,PSMs,[13],62 PSMs
same,PSMs,[14],3 PSMs
same,PSMs,[15],14 PSMs
same,PSMs,[16],21 PSMs
same,PSMs,Filamin-A (Homo sapiens),12 PSMs
same,PSMs,[17],10 PSMs
same,PSMs,[18],9 PSMs
same,PSMs,[19],3 PSMs
same,PSMs,[20],9 PSMs
same,PSMs,[21],3 PSMs
same,PSMs,Myosin-9 (Homo sapiens),242 PSMs
same,PSMs,[22],4 PSMs
same,PSMs,[23],5 PSMs
same,PSMs,[24],3 PSMs
same,PSMs,[25],5 PSMs
same,PSMs,[26],3 PSMs
same,PSMs,[27],14 PSMs
same,PSMs,Serpin B3 (Homo sapiens),2 PSMs
same,PSMs,[28],39 PSMs
same,PSMs,[29],6 PSMs
same,PSMs,Vimentin (Homo sapiens),45 PSMs
same,PSMs,[30],2 PSMs
same,PSMs,[31],5 PSMs
